Data reported in US8022188B2, “Immunosuppressant binding antibodies and methods of obtaining and using same” (Abbott Laboratories, priority 2006, dated 2011).
Where two headings read alike, the source gives them in different places.

B1: 1-60-46 AM2 IgG: murine IgG2a/κ containing the H2-1A, L1-1B and L3-A mutations; SEQ ID NO:40 and 42 (antibody)
heavy: EVELVESGGDLVKPGGSLKLSCAASGFTFSSYGMSWVRQTPDKRLEWVATISSGGAWTFYPDSVKGRFTISRDNAKNTLSLQMSSLKSADTAMYYCSRQTDGYSWFPYWGQGTLVTVSASAKTTAPSVYPLAPVCGDTTGSSVTLGCLVKGYFPEPVTLTWNSGSLSSGVHTFPAVLQSDLYTLSSSVTVTSSTWPSQSITCNVAHPASSTKVDKKIEPRGPTIKPCPPCKCPAPNLLGGPSVFIFPPKIKDVLMISLSPIVTCVVVDVSEDDPDVQISWFVNNVEVHTAQTQTHREDYNSTLRVVSALPIQHQDWMSGKEFKCKVNNKDLPAPIERTISKPKGSVRAPQVYVLPPPEEEMTKKQVTLTCMVTDFMPEDIYVEWTNNGKTELNYKNTEPVLDSDGSYFMYSKLRVEKKNWVERNSYSCSVVHEGLHNHHTTKSFSRTPGK
light: DVLMTQTPLSLPVSLGDQASISCKSSQGLVHSTGNTFLEWFLQKPGQSPKLLIYKISNRFSGVPDRFSGSGSGTDFTLKISRVESEDLGVYYCFQGSHAPLTFGAGTKLELKRASADAAPTVSIFPPSSEQLTSGGASVVCFLNNFYPKDINVKWKIDGSERQNGVLNSWTDQDSKDSTYSMSSTLTLTKDEYERHNSYTCEATHKTSTSPIVKSFNRNEC
modifications: Mouse

What was measured:
[1] = cited from earlier work
[2] = Kinetic Exclusion Assay (KinExA) affinity determination of IgG; format: binding; details: for Fold Improvement: KD, relative to 1-60-46 WT IgG
Description: The equilibrium dissociation constants for both the 1-60-46 AM2 IgG and the 1-60-46 WT mAb IgG produced from the murine hybridoma cell line 1-60-46 were determined using Kinetic Exclusion Assay (KinExA®), available from Sapidyne Instruments (Boise, Id.) (See, Darling and Brault, ASSAY and Drug Development Technologies, 2(6):647-657 (2004)). A constant amount of IgG antibody (AM2 or WT) was incubated with various concentrations (10^−8 M to 10^−13 M) of tacrolimus drug (commercially available from Astellas Pharma, Inc., Tokyo, Japan) and allowed to come to equilibrium (2 hours to 14 hours) before sampling. The amount of free binding sites was determined by injecting the antibody:tacrolimus reaction mixture over bt-tacro immobilized to a solid-phase. Tacrolimus IgG antibody bound to the bt-tacro immobilized to the solid-phase was subsequently detected by injecting goat anti-mouse polyclonal antibody conjugates (GAM) to Cy5 (GAM-Cy5) fluorescent dye. The degree of GAM-Cy5 bound was proportional to the amount of tacrolimus IgG bound to the immobilized bt-tacro and was detected after excitation with the appropriate wavelength. The KD was determined by analyzing the amount of free binding sites versus the amount of antigen present in the reaction sample using software provided by the manufacturer (Sapidyne Instruments; Boise, Id.).

Molecule	in vivo potency greater than cyclosporine CsA [1]	Fold Improvement ([2]; 10% MeOH)	Fold Improvement ([2]; no MeOH)	improvement in KD relative to the 1-60-46 WT IgG ([2]; physiological diluent)	Kd ([2]; physiological diluent (PBS pH 7.4, 1% BSA), read-out: KD (no MeOH))	improvement in KD relative to the 1-60-46 WT IgG ([2]; selection diluent)	Kd ([2]; selection diluent (PBS, 1% BSA, 10% methanol), read-out: Kd (10% MeOH))
C=CC[C@@H]1/C=C(\C)C[C@H](C)C[C@H](OC)[C@H]2O[C@@](O)(C(=O)C(=O)N3CCCC[C@H]3C(=O)O[C@H](/C(C)=C/[C@@H]3CC[C@@H](O)[C@H](OC)C3)[C@H](C)[C@@H](O)CC1=O)[C@H](C)C[C@@H]2OC [Tacrolimus]	50-100 times	–	–	–	–	–	–
B1	–	12x	16x	16 fold	1.2 pM	12 fold	13 pM
